Experimental findings from patent EP4748858A1 are described below.

First the molecules themselves.
B1: AHP19484-VHH3 CAR (protein)
chain: QVQLVESGGGLVKPGGSLRLSCAASGSSFHFAFMGWYRQAPGKQRELVADISPGNSTNYADPVKGRFTISRDNAKNSLYLQMNSLRAEDTAVYFCRDLRSWGAWGQGTLVTVSSGGGSGGGSGGGSGGGSQVQLVESGGGLVKPGGSLRLSCAASGSSFHFAFMGWYRQAPGKQRELVADISPGNSTNYADPVKGRFTISRDNAKNSLYLQMNSLRAEDTAVYFCRDLRSWGAWGQGTLVTVSSAAADYKDDDDKIEVMYPPPYLDNEKSNGTIIHVKGKHLCPSPLFPGPSKPFWVLVVVGGVLACYSLLVTVAFIIFWVRSKRSRLLHSDYMNMTPRRPGPTRKHYQPYAPPRDFAAYRSRVKFSRSADAPAYQQGQNQLYNELNLGRREEYDVLDKRRGRDPEMGGKPRRKNPQEGLYNELQKDKMAEAYSEIGMKGERRRGKGHDGLYQGLSTATKDTYDALHMQALPPR
B2: VHH6 CAR (protein)
chain: DVQLQESGGGLVQAGGSLRLSCAVSGYPYSSYCMGWFRQAPGKEREGVAAIDSDGRTRYADSVKGRFTISQDNAKNTLYLQMNRMKPEDTAMYYCAARFGPMGCVDLSTLSFGHWGQGTQVTVSITGGGGSGGGGSGGGGSGGGGSDVQLQESGGGLVQAGGSLRLSCAVSGYPYSSYCMGWFRQAPGKEREGVAAIDSDGRTRYADSVKGRFTISQDNAKNTLYLQMNRMKPEDTAMYYCAARFGPMGCVDLSTLSFGHWGQGTQVTVSITAAADYKDDDDKIEVMYPPPYLDNEKSNGTIIHVKGKHLCPSPLFPGPSKPFWVLVVVGGVLACYSLLVTVAFIIFWVRSKRSRLLHSDYMNMTPRRPGPTRKHYQPYAPPRDFAAYRSRVKFSRSADAPAYQQGQNQLYNELNLGRREEYDVLDKRRGRDPEMGGKPRRKNPQEGLYNELQKDKMAEAYSEIGMKGERRRGKGHDGLYQGLSTATKDTYDALHMQALPPR
B3: AHP19485-VHH1 CAR (protein)
chain: EVQLVESGGGLVQPGGSLRLSCAASERIFSIHAMGWYRQAPGKQRELVSSITIGGSTHYADSVKGRFTISRDNSKNTLYLQMNSLRAEDTAVYYCNSMLLAGTVGGSWGQGTLVTVSSGGGSGGGSGGGSGGGSEVQLVESGGGLVQPGGSLRLSCAASERIFSIHAMGWYRQAPGKQRELVSSITIGGSTHYADSVKGRFTISRDNSKNTLYLQMNSLRAEDTAVYYCNSMLLAGTVGGSWGQGTLVTVSSAAADYKDDDDKIEVMYPPPYLDNEKSNGTIIHVKGKHLCPSPLFPGPSKPFWVLVVVGGVLACYSLLVTVAFIIFWVRSKRSRLLHSDYMNMTPRRPGPTRKHYQPYAPPRDFAAYRSRVKFSRSADAPAYQQGQNQLYNELNLGRREEYDVLDKRRGRDPEMGGKPRRKNPQEGLYNELQKDKMAEAYSEIGMKGERRRGKGHDGLYQGLSTATKDTYDALHMQALPPR
B4: AHP19509-VHH1 CAR (protein)
chain: EVQLVESGGGLVQPGGSLRLSCAASGGTFNRYTMGWFRQAPGKEREFVSAISWSGGSTDYADSVKGRFTISRDNSKNTLYLQMNSLRAEDTAVYYCDTDRMPYRPVAAGILSWEANWGQGTLVTVSSGGGSGGGSGGGSGGGSEVQLVESGGGLVQPGGSLRLSCAASGGTFNRYTMGWFRQAPGKEREFVSAISWSGGSTDYADSVKGRFTISRDNSKNTLYLQMNSLRAEDTAVYYCDTDRMPYRPVAAGILSWEANWGQGTLVTVSSAAADYKDDDDKIEVMYPPPYLDNEKSNGTIIHVKGKHLCPSPLFPGPSKPFWVLVVVGGVLACYSLLVTVAFIIFWVRSKRSRLLHSDYMNMTPRRPGPTRKHYQPYAPPRDFAAYRSRVKFSRSADAPAYQQGQNQLYNELNLGRREEYDVLDKRRGRDPEMGGKPRRKNPQEGLYNELQKDKMAEAYSEIGMKGERRRGKGHDGLYQGLSTATKDTYDALHMQALPPR

In the test the target is PE-Labelled Human CD7 Protein, His Tag (ACROBiosystems, Cat# CD7-HP2E3) (human) (UniProt P09564). Kind of test: flow cytometry of CAR-T cells stained with PE-labelled human CD7 protein, His tag.
Sequence of PE-Labelled Human CD7 Protein, His Tag (ACROBiosystems, Cat# CD7-HP2E3) (human) (P09564 26-180 limits assumed): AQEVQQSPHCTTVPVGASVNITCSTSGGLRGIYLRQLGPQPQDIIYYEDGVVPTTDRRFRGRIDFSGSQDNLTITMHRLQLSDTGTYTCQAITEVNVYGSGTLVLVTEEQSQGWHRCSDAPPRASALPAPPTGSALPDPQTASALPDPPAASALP
B1 registered a CAR expression% (cells stained by PE-labelled human CD7 protein) of 92.8%.
The result for B2 reads 99.1%.
As to B3, the CAR expression% (cells stained by PE-labelled human CD7 protein) is 99.7%.
The molecule B4 displayed a CAR expression% (cells stained by PE-labelled human CD7 protein) of 97.3%.
